Starred links: 1 amine or outer side, 2 acyl side, 3 side chain; linkers in the order of their positions; H or OH if unused. Non-standard residues stand in square brackets, D forms with d. Groups on a side chain read outwards from the residue. No end group written: not given here. *: point of attachment. C16N3 = 16-azido-hexadecanoic acid, [N-]=[N+]=NCCCCCCCCCCCCCCCC(=O)*; C5N3 = 5-azido pentinoic acid, [N-]=[N+]=NCCCCC(=O)*; C18 diacid = O=C(O)CCCCCCCCCCCCCCCCC(=O)*; Lys(N3) = [N-]=[N+]=NCCCC[C@H](N)C(=O)O; γGlu = O=C(O)[C@H](CCC(=O)[*:2])N[*:1]; Met(O2) = CS(=O)(=O)CC[C@H](N)C(=O)O; Palmitoyl = CCCCCCCCCCCCCCCC(=O)*; AEEA = NCCOCCOCC(=O)O; Aib = CC(C)(N)C(=O)O
B1: PEP28 (peptide)
peptide: H[Aib]QGTFTSDYSKYLD[Aib]RAAQDFVQWLLDTKK([AEEA-AEEA-γGlu-C16N3])-NH2
modifications: N-terminus assumed
SMILES: CC(C)C[C@H](NC(=O)[C@H](Cc1c[nH]c2ccccc12)NC(=O)[C@H](CCC(N)=O)NC(=O)[C@@H](NC(=O)[C@H](Cc1ccccc1)NC(=O)[C@H](CC(=O)O)NC(=O)[C@H](CCC(N)=O)NC(=O)[C@H](C)NC(=O)[C@H](C)NC(=O)[C@H](CCCNC(=N)N)NC(=O)C(C)(C)NC(=O)[C@H](CC(=O)O)NC(=O)[C@H](CC(C)C)NC(=O)[C@H](Cc1ccc(O)cc1)NC(=O)[C@H](CCCCN)NC(=O)[C@H](CO)NC(=O)[C@H](Cc1ccc(O)cc1)NC(=O)[C@H](CC(=O)O)NC(=O)[C@H](CO)NC(=O)[C@@H](NC(=O)[C@H](Cc1ccccc1)NC(=O)[C@@H](NC(=O)CNC(=O)[C@H](CCC(N)=O)NC(=O)C(C)(C)NC(=O)[C@@H](N)Cc1c[nH]cn1)[C@@H](C)O)[C@@H](C)O)C(C)C)C(=O)N[C@@H](CC(C)C)C(=O)N[C@@H](CC(=O)O)C(=O)N[C@H](C(=O)N[C@@H](CCCCN)C(=O)N[C@@H](CCCCNC(=O)COCCOCCNC(=O)COCCOCCNC(=O)CC[C@H](NC(=O)CCCCCCCCCCCCCCCN=[N+]=[N-])C(=O)O)C(N)=O)[C@@H](C)O
B2: PEP27 (peptide)
peptide: H[dS]QGTFTSDYSKYLDERAAQK([AEEA-AEEA-γGlu-C16N3])FVQWLLDT-NH2
modifications: N-terminus assumed
SMILES: CC(C)C[C@H](NC(=O)[C@H](Cc1ccc(O)cc1)NC(=O)[C@H](CCCCN)NC(=O)[C@H](CO)NC(=O)[C@H](Cc1ccc(O)cc1)NC(=O)[C@H](CC(=O)O)NC(=O)[C@H](CO)NC(=O)[C@@H](NC(=O)[C@H](Cc1ccccc1)NC(=O)[C@@H](NC(=O)CNC(=O)[C@H](CCC(N)=O)NC(=O)[C@@H](CO)NC(=O)[C@@H](N)Cc1c[nH]cn1)[C@@H](C)O)[C@@H](C)O)C(=O)N[C@@H](CC(=O)O)C(=O)N[C@@H](CCC(=O)O)C(=O)N[C@@H](CCCNC(=N)N)C(=O)N[C@@H](C)C(=O)N[C@@H](C)C(=O)N[C@@H](CCC(N)=O)C(=O)N[C@@H](CCCCNC(=O)COCCOCCNC(=O)COCCOCCNC(=O)CC[C@H](NC(=O)CCCCCCCCCCCCCCCN=[N+]=[N-])C(=O)O)C(=O)N[C@@H](Cc1ccccc1)C(=O)N[C@H](C(=O)N[C@@H](CCC(N)=O)C(=O)N[C@@H](Cc1c[nH]c2ccccc12)C(=O)N[C@@H](CC(C)C)C(=O)N[C@@H](CC(C)C)C(=O)N[C@@H](CC(=O)O)C(=O)N[C@H](C(N)=O)[C@@H](C)O)C(C)C
B3: PEP6 (peptide)
peptide: H[Aib]QGTFTSDK([γGlu-γGlu-Palmitoyl])SKYLD[Aib]RRAQDFVQWLLDT[Lys(N3)][γGlu]-NH2
modifications: N-terminus assumed
SMILES: CCCCCCCCCCCCCCCC(=O)N[C@@H](CCC(=O)N[C@@H](CCC(=O)NCCCC[C@H](NC(=O)[C@H](CC(=O)O)NC(=O)[C@H](CO)NC(=O)[C@@H](NC(=O)[C@H](Cc1ccccc1)NC(=O)[C@@H](NC(=O)CNC(=O)[C@H](CCC(N)=O)NC(=O)C(C)(C)NC(=O)[C@@H](N)Cc1c[nH]cn1)[C@@H](C)O)[C@@H](C)O)C(=O)N[C@@H](CO)C(=O)N[C@@H](CCCCN)C(=O)N[C@@H](Cc1ccc(O)cc1)C(=O)N[C@@H](CC(C)C)C(=O)N[C@@H](CC(=O)O)C(=O)NC(C)(C)C(=O)N[C@@H](CCCNC(=N)N)C(=O)N[C@@H](CCCNC(=N)N)C(=O)N[C@@H](C)C(=O)N[C@@H](CCC(N)=O)C(=O)N[C@@H](CC(=O)O)C(=O)N[C@@H](Cc1ccccc1)C(=O)N[C@H](C(=O)N[C@@H](CCC(N)=O)C(=O)N[C@@H](Cc1c[nH]c2ccccc12)C(=O)N[C@@H](CC(C)C)C(=O)N[C@@H](CC(C)C)C(=O)N[C@@H](CC(=O)O)C(=O)N[C@H](C(=O)N[C@@H](CCCCN=[N+]=[N-])C(=O)N[C@@H](CCC(N)=O)C(=O)O)[C@@H](C)O)C(C)C)C(=O)O)C(=O)O
B4: PEP13 (peptide)
peptide: H[dS]QGTFTSDK([γGlu-γGlu-Palmitoyl])SKYLDSRRAHDFV[Lys(N3)]WLLNT-NH2
modifications: N-terminus assumed
SMILES: CCCCCCCCCCCCCCCC(=O)N[C@@H](CCC(=O)N[C@@H](CCC(=O)NCCCC[C@H](NC(=O)[C@H](CC(=O)O)NC(=O)[C@H](CO)NC(=O)[C@@H](NC(=O)[C@H](Cc1ccccc1)NC(=O)[C@@H](NC(=O)CNC(=O)[C@H](CCC(N)=O)NC(=O)[C@@H](CO)NC(=O)[C@@H](N)Cc1c[nH]cn1)[C@@H](C)O)[C@@H](C)O)C(=O)N[C@@H](CO)C(=O)N[C@@H](CCCCN)C(=O)N[C@@H](Cc1ccc(O)cc1)C(=O)N[C@@H](CC(C)C)C(=O)N[C@@H](CC(=O)O)C(=O)N[C@@H](CO)C(=O)N[C@@H](CCCNC(=N)N)C(=O)N[C@@H](CCCNC(=N)N)C(=O)N[C@@H](C)C(=O)N[C@@H](Cc1c[nH]cn1)C(=O)N[C@@H](CC(=O)O)C(=O)N[C@@H](Cc1ccccc1)C(=O)N[C@H](C(=O)N[C@@H](CCCCN=[N+]=[N-])C(=O)N[C@@H](Cc1c[nH]c2ccccc12)C(=O)N[C@@H](CC(C)C)C(=O)N[C@@H](CC(C)C)C(=O)N[C@@H](CC(N)=O)C(=O)N[C@H](C(N)=O)[C@@H](C)O)C(C)C)C(=O)O)C(=O)O
B5: PEP21 (peptide)
peptide: HXQGTFTSDKSKYLDXRAAQDFVQWLLDTKK
modifications: Aib (U) at 2 and 16; Lys 10 K(γEγEC16); Lys 31 K(PEG2PEG2-C5N3); C-terminal amide
B6: PEP22 (peptide)
peptide: H[Aib]QGTFTSDK([γGlu-γGlu-Palmitoyl])SKYLD[Aib]RAAQDFV[Lys(N3)]WLLDTK[γGlu]-NH2
modifications: N-terminus assumed
SMILES: CCCCCCCCCCCCCCCC(=O)N[C@@H](CCC(=O)N[C@@H](CCC(=O)NCCCC[C@H](NC(=O)[C@H](CC(=O)O)NC(=O)[C@H](CO)NC(=O)[C@@H](NC(=O)[C@H](Cc1ccccc1)NC(=O)[C@@H](NC(=O)CNC(=O)[C@H](CCC(N)=O)NC(=O)C(C)(C)NC(=O)[C@@H](N)Cc1c[nH]cn1)[C@@H](C)O)[C@@H](C)O)C(=O)N[C@@H](CO)C(=O)N[C@@H](CCCCN)C(=O)N[C@@H](Cc1ccc(O)cc1)C(=O)N[C@@H](CC(C)C)C(=O)N[C@@H](CC(=O)O)C(=O)NC(C)(C)C(=O)N[C@@H](CCCNC(=N)N)C(=O)N[C@@H](C)C(=O)N[C@@H](C)C(=O)N[C@@H](CCC(N)=O)C(=O)N[C@@H](CC(=O)O)C(=O)N[C@@H](Cc1ccccc1)C(=O)N[C@H](C(=O)N[C@@H](CCCCN=[N+]=[N-])C(=O)N[C@@H](Cc1c[nH]c2ccccc12)C(=O)N[C@@H](CC(C)C)C(=O)N[C@@H](CC(C)C)C(=O)N[C@@H](CC(=O)O)C(=O)N[C@H](C(=O)N[C@@H](CCCCN)C(=O)N[C@@H](CCC(N)=O)C(=O)O)[C@@H](C)O)C(C)C)C(=O)O)C(=O)O

What follows are binders tested against human glucagon receptor (human, UniProt P47871 26-477) (assay: cell-based or functional assay).

Binder | hGCGR_EC50 (cAMP activity assay) [nM]
H[dS]QGTFTSDK([γGlu-γGlu-Palmitoyl])SKYLDERAAK([AEEA-AEEA-C5N3])DFVQWLLDT-NH2 [PEP17] | 0.06
HXQGTFTSDKSKYLDERAAQDFVKWLLDT (D-Ser (s) at 2; Lys 10 K(γEγEC16); Lys 24 K(PEG2-C5N3); C-terminal amide) [PEP14] | 0.05
H[dS]QGTFTSDK([γGlu-γGlu-Palmitoyl])SKYLDERAAQ[Lys(N3)]FVQWLLDT-NH2 [PEP1] | 0.01
B1 | 0.17
H[Aib]QGTFTSDK([γGlu-γGlu-Palmitoyl])SKYLD[Aib]RAAQDFVQWLLDTKK([AEEA-C5N3])-NH2 [PEP20] | 0.1
H[Aib]QGTFTSDK([γGlu-γGlu-Palmitoyl])SKYLDERAAQDFV[Lys(N3)]WLLDGRG-NH2 [PEP2] | 0.11
H[dS]QGTFTSDYSKYLDERAAK([AEEA-AEEA-γGlu-C16N3])DFVQWLLDT-NH2 [PEP26] | 0.12
H[Aib]QGTFTSDK([γGlu-γGlu-Palmitoyl])SKYLD[Aib]RAAQDFV[Lys(N3)]WL[Met(O2)]KGRG-NH2 [PEP3] | 0.07
B2 | 0.39
HXQGTFTSDYSKYLDERAAQDFVKWLLDT (D-Ser (s) at 2; Lys 24 K(PEG2PEG2γE-C16N3); C-terminal amide) [PEP25] | 0.04
B3 | 0.07
B4 | 0.04
H[Aib]QGTFTSDYSKYLDARAAK([AEEA-AEEA-γGlu-C18 diacid])DFV[Lys(N3)]WL[Met(O2)]DT-NH2 [PEP30] | 2.27
HXQGTFTSDKSKYLDERAAQDFVXWLLDT (D-Ser (s) at 2; Lys 10 K(PEG2PEG2γEC18-OH); Nle(εN3) at 24; C-terminal amide) [PEP29] | 3.26
H[dS]QGTFTSDK([γGlu-γGlu-Palmitoyl])SKYLDERAAK([AEEA-C5N3])DFVQWLLDT-NH2 [PEP16] | 0.05
B5 | 0.08

The binders below were run against human GLP-1 receptor (human, UniProt P43220 24-463) (assay: cell-based or functional assay).

Binder | hGLP1R EC50 (cAMP activity assay) [nM]
HXQGTFTSDKSKYLDERAAQDFVXWLLDT (D-Ser (s) at 2; Lys 10 K(γEγEC16); Nle(εN3) at 24; C-terminal amide) [PEP74] | 0.05
H[dS]QGTFTSDK([γGlu-γGlu-Palmitoyl])SKYLDERAAK([AEEA-AEEA-C5N3])DFVQWLLDT-NH2 [PEP17] | 0.05
HXQGTFTSDKSKYLDERAAQDFVKWLLDT (D-Ser (s) at 2; Lys 10 K(γEγEC16); Lys 24 K(PEG2-C5N3); C-terminal amide) [PEP14] | 0.07
B1 | 0.16
H[Aib]QGTFTSDK([γGlu-γGlu-Palmitoyl])SKYLD[Aib]RAAQDFVQWLLDTKK([AEEA-C5N3])-NH2 [PEP20] | 0.05
H[dS]QGTFTSDYSKYLDERAAK([AEEA-AEEA-γGlu-C16N3])DFVQWLLDT-NH2 [PEP26] | 0.12
HXQGTFTSDKSKYLDERAAQDFVXWLLXT (D-Ser (s) at 2; Lys 10 K(γEγEC16); Nle(εN3) at 24; γE at 28; C-terminal amide) [PEP11] | 0.06
B2 | 0.06
HXQGTFTSDYSKYLDERAAQDFVKWLLDT (D-Ser (s) at 2; Lys 24 K(PEG2PEG2γE-C16N3); C-terminal amide) [PEP25] | 0.05
B3 | 0.17
B4 | 0.1
H[Aib]QGTFTSDYSKYLDARAAK([AEEA-AEEA-γGlu-C18 diacid])DFV[Lys(N3)]WL[Met(O2)]DT-NH2 [PEP30] | 0.5
HXQGTFTSDKSKYLDERAAQDFVXWLLDT (D-Ser (s) at 2; Lys 10 K(PEG2PEG2γEC18-OH); Nle(εN3) at 24; C-terminal amide) [PEP29] | 3.28
H[dS]QGTFTSDK([γGlu-γGlu-Palmitoyl])SKYLDERAAK([AEEA-C5N3])DFVQWLLDT-NH2 [PEP16] | 0.06
B6 | 0.07
B5 | 0.07

— patent US20190175744A1 (Merck Sharp & Dohme, published 2019)
